Changes are numbered by the printed parent chain.
B1: bovine ACE2 ectodomain fused with mouse Fc (Fc fusion)
chain: QSTTEEQAKTFLEKFNHEAEDLSYQSSLASWNYNTNITDENVQKMNEARAKWSAFYEEQSRMAKTYSLEEIQNLTLKRQLKALQHSGTSALSAEKSKRLNTILNKMSTIYSTGKVLDPNTQECLALEPGLDDIMENSRDYNRRLWAWEGWRAEVGKQLRPLYEEYVVLENEMARANNYEDYGDYWRGDYEVTGAGDYDYSRDQLMKDVERTFAEIKPLYEQLHAYVRAKLMHTYPSYISPTGCLPAHLLGDMWGRFWTNLYSLTVPFEHKPSIDVTEKMENQSWDAERIFKEAEKFFVSISLPYMTQGFWDNSMLTEPGDGRKVVCHPTAWDLGKGDFRIKMCTKVTMDDFLTAHHEMGHIQYDMAYAAQPYLLRNGANEGFHEAVGEIMSLSAATPHYLKALGLLAPDFHEDNETEINFLLKQALTIVGTLPFTYMLEKWRWMVFKGEIPKQQWMEKWWEMKREIVGVVEPLPHDETYCDPACLFHVAEDYSFIRYYTRTIYQFQFHEALCKTAKHEGALFKCDISNSTEAGQRLLQMLRLGKSEPWTLALENIVGIKTMDVKPLLNYFEPLFTWLKEQNRNSFVGWSTEWTPYSDQSIKVRISLKSALGENAYEWNDNEMYLFQSSVAYAMRKYFSEARNETVLFGEDNVWVSDKKPRISFKFFVTSPNNVSDIIPRTEVENAIRLSRDRINDVFQLDDNSLEFLGIQPTLGPPYEPPVT
B2: rabbit ACE2 ectodomain fused with mouse Fc (Fc fusion)
chain: QSTIEELAKTFLEKFNQEAEDLSYQSALASWDYNTNITEENVQKMNDAEAKWSAFYEEQSKLAKTYPSQEVQNLTVKRQLQALQQSGSSALSADKSKQLNTILSTMSTIYSTGKVCNQSNPQECFLLEPGLDEIMAKSTDYNERLWAWEGWRSVVGKQLRPLYEEYVVLKNEMARANNYEDYGDYWRADYEAEGADGYDYSRSQLIDDVERTFSEIKPLYEQLHAFVRTKLMDAYPSRISPTGCLPAHLLGDMWGRFWTNLYSLTVPFGQKPNIDVTDTMVNQGWDAERIFKEAEKFFVSVGLPSMTQGFWENSMLTEPGDGRKVVCHPTAWDLGKGDFRIKMCTKVTMDNFLTAHHEMGHIQYDMAYATQPFLLRNGANEGFHEAVGEIMSLSAATPEHLKSIGLLPYDFHEDNETEINFLLKQALTIVGTLPFTYMLEKWRWMVFKGEIPKEQWMQKWWEMKREIVGVVEPMPHDETYCDPAALFHVANDYSFIRYYTRTIYQFQFQEALCQAAQHEGPLHKCDISNSTEAGQKLLNMLRLGRSEPWTLALENVVGAKNMDVRPLLNYFEPLFTWLKEQNRNSFVGWSTEWTPYADQSIKVRISLKTALGDQAYEWNDSEMYLFRSSVAYAMRKYFSEVKNQTILFGEEDVRVSDLKPRISFNFFVTAPNNVNDIIPRNEVEEAISMSRSRINDIFRLDDNSLEFVGIQPTLEPPYESPVP
B3: monkey ACE2 ectodomain fused with mouse Fc (Fc fusion)
chain: QSTIEEQAKTFLDKFNHEAEDLFYQSSLASWNYNTNITEENVQNMNNAGEKWSAFLKEQSTLAQMYPLQEIQNLTVKLQLQALQQNGSSVLSEDKSKRLNTILNTMSTIYSTGKVCNPNNPQECLLLDPGLNEIMEKSLDYNERLWAWEGWRSEVGKQLRPLYEEYVVLKNEMARANHYKDYGDYWRGNYEVNGVDGYDYNRDQLIEDVERTFEEIKPLYEHLHAYVRAKLMNAYPSYISPTGCLPAHLLGDMWGRFWTNLYSLTVPFGQKPNIDVTDAMVNQAWNAQRIFKEAEKFFVSVGLPNMTQGFWENSMLTDPGNVQKVVCHPTAWDLGKGDFRIIMCTKVTMDDFLTAHHEMGHIQYDMAYAAQPFLLRNGANEGFHEAVGEIMSLSAATPKHLKSIGLLSPDFQEDNETEINFLLKQALTIVGTLPFTYMLEKWRWMVFKGEIPKDQWMKKWWEMKREIVGVVEPVPHDETYCDPASLFHVSNDYSFIRYYTRTLYQFQFQEALCQAAKHEGPLHKCDISNSTEAGQKLLNMLKLGKSEPWTLALENVVGAKNMNVRPLLNYFEPLFTWLKDQNKNSFVGWSTDWSPYADQSIKVRISLKSALGDKAYEWNDNEMYLFRSSVAYAMRTYFLEIKHQTILFGEEDVRVADLKPRISFNFYVTAPKNVSDIIPRTEVEEAIRISRSRINDAFRLNDNSLEFLGIQTTLAPPYQSPVT
B4: pig ACE2 ectodomain fused with mouse Fc (Fc fusion)
chain: QSTTEELAKTFLEKFNLEAEDLAYQSSLASWNYNTNITDENIQKMNDARAKWSAFYEEQSRIAKTYPLDEIQTLILKRQLQALQQSGTSGLSADKSKRLNTILNTMSTIYSSGKVLDPNNPQECLVLEPGLDEIMENSKDYSRRLWAWESWRAEVGKQLRPLYEEYVVLENEMARANNYEDYGDYWRGDYEVTGTGDYDYSRNQLMEDVERTFAEIKPLYEHLHAYVRAKLMDAYPSRISPTGCLPAHLLGDMWGRFWTNLYPLTVPFGEKPSIDVTEAMVNQSWDAIRIFEEAEKFFVSIGLPNMTQGFWNNSMLTEPGDGRKVVCHPTAWDLGKGDFRIKMCTKVTMDDFLTAHHEMGHIQYDMAYAIQPYLLRNGANEGFHEAVGEIMSLSAATPHYLKALGLLPPDFYEDSETEINFLLKQALTIVGTLPFTYMLEKWRWMVFKGEIPKEQWMQKWWEMKREIVGVVEPLPHDETYCDPACLFHVAEDYSFIRYYTRTIYQFQFHEALCRTAKHEGPLYKCDISNSTEAGQKLLQMLSLGKSEPWTLALENIVGVKTMDVKPLLSYFEPLLTWLKAQNGNSSVGWNTDWTPYADQSIKVRISLKSALGKEAYEWNDNEMYLFRSSIAYAMRNYFSSAKNETIPFGAEDVWVSDLKPRISFNFFVTSPANMSDIIPRSDVEKAISMSRSRINDAFRLDDNTLEFLGIQPTLGPPDEPPVT
B5: goat ACE2 ectodomain fused with mouse Fc (Fc fusion)
chain: QSTTEEQAKTFLEKFNHEAEDLSYQSSLASWNYNTNITDENVQKMNEARAKWSAFYEEQSRMARTYSLEEIQNLTLKRQLKALQHSGTSVLSAEKSKRLNMILNKMSTIYSTGKVLDPNTQECLALEPGLDDIMENSRDYNRRLWAWEGWRAEVGKQLRPLYEEYVVLENEMARANNYEDYGDYWRGDYEVTGAGDYDYSRDQLMKDVERTFAEIKPLYEQLHAYVRAKLMNTYPSYISPTGCLPAHLLGDMWGRFWTNLYSLTVPFEHKPSIDVTEKMKNQSWDAERIFKEAEKFFVSIGLPYMTQGFWNNSMLTEPGDGRKVVCHPTAWDLGKGDFRIKMCTKVTMDDFLTAHHEMGHIQYDMAYATQPYLLRNGANEGFHEAVGEIMSLSAATPHYLKALGLLAPDFYEDNETEINFLLKQALTIVGTLPFTYMLEKWRWMVFKGEIPKQQWMEKWWEMKREIVGVVEPLPHDETYCDPACLFHVAEDYSFIRYYTRTIYQFQFHEALCKTAKHEGALFKCDISNSTEAGQRLLQMLRLGKSEPWTLALENIVGIKTMDVKPLLNYFEPLFTWLKEQNRNSFVGWSTEWTPYSDQSIKVRISLKSALGENAYEWNDNEMYLFRSSVAYAMRKYFLEDRNETIPFGEENVWVSDKKPRISFKFFVTSPNNVSDIIPRTEVENAIRLCRDRINDAFQLDDNSLEFLGIQPTLRPPYEPPVT
B6: sheep ACE2 ectodomain fused with mouse Fc (Fc fusion)
chain: B5 chain with E6G, M101T, A213E, N232D, N311D, E639K, D640E
B7: raccoon dog ACE2 ectodomain fused with mouse Fc (Fc fusion)
chain: QSTEDLVNTFLEKFNYEAEELSYQSSLASWNYNTNITDENLQKMNNAGAKWSAFYEEQSKLAKTYPLEEIQDSTVKRQLRALQHSGSSVLSADKNQRLNTILNSMSTIYSTGKACNPSNPQECLLLEPGLDDIMENSKDYNERLWAWEGWRSEVGKQLRPLYEEYVALKNEMARANNYEDYGDYWRGDYEEEWENGYNYSRNQLIDDVEHTFTQIMPLYQHLHAYVRTKLMDTYPSYISPTGCLPAHLLGDMWGRFWTNLYPLTVPFGQKPNIDVTNAMVNQSWDARKIFKEAEKFFVSVGLPNMTQGFWENSMLTEPSDSWKVVCHPTAWDLGRGDFRIKMCTKVTMDDFLTAHHEMGHIQYDMAYAAQPFLLRNGANEGFHEAVGEIMSLSAATPNHLKNIGLLPPSFFEDSETEINFLLKQALTIVGTLPFTYMLEKWRWMVFKGEIPKDQWMKTWWEMKRNIVGVVEPVPHDETYCDPASLFHVANDYSFIRYYTRTIYQFQFQEALCQIAKHEGPLHKCDISNSSEAGQKLLEMLKLGKSKPWTYALEIVVGAKNMDVRPLLNYFEPLFTWLKEQNRNSFVGWNTDWSPYADQSIKVRISLKSALGEKAYEWNNNEMYLFRSSIAYAMRQYFSEVKNQTIPFVEDNVWVSDLKPRISFNFFVTSPGNVSDIIPRTEVEEAIRMYRSRINDVFRLDDNSLEFLGIQPTLGPPYEPPVT

Each binder was assayed against SARS-CoV receptor binding domain (RBD), His-tagged (SARS-CoV, UniProt P59594 306-527) (assay: SPR).

Question: With B1 as the binder, how does the Kd read?
Answer: 89.8 nM

Question: With B2 as the binder, how does the Kd read?
Answer: 74.8 nM

Question: With B3 as the binder, how does the Kd read?
Answer: 69.1 nM

Question: B4 was tested. Which Kd did it give?
Answer: 35.8 nM

Question: For B5, which Kd is on record?
Answer: 308 nM

Question: How did the Kd turn out when B6 was run?
Answer: 157 nM

Question: B7 was tested. Which Kd did it give?
Answer: 179 nM

What follows are binders tested against SARS-CoV-2 receptor binding domain (RBD), His-tagged (SARS-CoV-2, UniProt P0DTC2 319-541) (assay: SPR).

Question: With B1 as the binder, how does the Kd read?
Answer: 73.7 nM

Question: Which Kd does the source give for B2 here?
Answer: 76.2 nM

Question: How did the Kd turn out when B3 was run?
Answer: 21.7 nM

Question: With B4 as the binder, how does the Kd read?
Answer: 47.6 nM

Question: Which Kd does the source give for B5 here?
Answer: 157 nM

Question: How did the Kd turn out when B6 was run?
Answer: 137 nM

Question: How did the Kd turn out when B7 was run?
Answer: 96.4 nM

Source: publication PMC7526519 (2020)
